Measured values taken from article PMC9458440, “Cryo-EM structure of the Smc5/6 holo-complex” (Nucleic Acids Research, 2022).

Legend:
Test in all cases: cryo-EM structure; BS3-crosslinked six-subunit holo-complex, apo / non-liganded; fractions from Superose 6 diluted to 20 mM HEPES.NaOH pH 7.5, 50 mM NaCl, 0.5 mM TCEP, 0.1 mg/ml; maps at 10.8 Å (holo-complex), 8.53 Å (hinge/arm) and 6.5 Å (head-only); pseudo-atomic model built from homology and AlphaFold models
Settings in all cases: both partners purified
[1] = target: T1, Smc5 (Walker B mutant E1015Q), subunit of the S. cerevisiae Smc5/6 holo-complex (S. cerevisiae, UniProt Q08204 1-1093, E1015Q)
T1 construct: Smc5, Saccharomyces cerevisiae; the model holds amino acids 35-390, 394-882, 884-1068; The complex was crosslinked with BS3; also called κ-SMC; source: recombinant, expressed in insect cells, purified as holo-complex (Superose 6 SEC), BS3-crosslinked
T1 sequence: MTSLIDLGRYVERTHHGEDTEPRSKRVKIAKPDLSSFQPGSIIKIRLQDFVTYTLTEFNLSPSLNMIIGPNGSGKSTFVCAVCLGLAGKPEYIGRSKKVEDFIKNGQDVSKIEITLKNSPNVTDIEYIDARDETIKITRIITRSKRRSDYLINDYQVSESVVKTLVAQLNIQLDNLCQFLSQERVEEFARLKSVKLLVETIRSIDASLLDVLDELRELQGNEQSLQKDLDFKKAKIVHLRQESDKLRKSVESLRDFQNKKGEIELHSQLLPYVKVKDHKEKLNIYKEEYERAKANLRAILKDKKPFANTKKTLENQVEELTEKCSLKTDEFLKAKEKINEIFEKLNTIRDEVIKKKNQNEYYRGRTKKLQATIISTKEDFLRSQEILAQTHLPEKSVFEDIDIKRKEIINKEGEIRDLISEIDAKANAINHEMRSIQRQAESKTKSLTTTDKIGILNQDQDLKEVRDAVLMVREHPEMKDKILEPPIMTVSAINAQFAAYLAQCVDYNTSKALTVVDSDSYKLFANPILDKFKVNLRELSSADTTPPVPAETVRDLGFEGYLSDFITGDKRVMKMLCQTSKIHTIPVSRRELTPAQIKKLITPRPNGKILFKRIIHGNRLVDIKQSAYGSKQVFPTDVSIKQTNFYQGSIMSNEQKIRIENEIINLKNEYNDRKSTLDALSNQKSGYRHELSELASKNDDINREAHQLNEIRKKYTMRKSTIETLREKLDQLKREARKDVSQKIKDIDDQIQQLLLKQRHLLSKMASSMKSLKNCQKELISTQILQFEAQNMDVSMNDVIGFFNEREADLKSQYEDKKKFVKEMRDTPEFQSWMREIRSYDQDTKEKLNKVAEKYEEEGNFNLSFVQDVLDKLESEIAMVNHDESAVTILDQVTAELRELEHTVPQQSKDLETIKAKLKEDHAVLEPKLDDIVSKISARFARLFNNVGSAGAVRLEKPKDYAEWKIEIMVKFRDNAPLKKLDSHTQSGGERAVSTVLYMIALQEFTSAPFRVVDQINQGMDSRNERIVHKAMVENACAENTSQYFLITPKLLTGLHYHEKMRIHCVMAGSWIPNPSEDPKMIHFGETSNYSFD

[2] = target: T2, Nse1, subunit of the S. cerevisiae Smc5/6 holo-complex (S. cerevisiae, UniProt Q07913 1-336)
T2 construct: Nse1, Saccharomyces cerevisiae; the model holds amino acids 11-336; also called KITE subunit; source: recombinant, expressed in insect cells, purified as holo-complex (Superose 6 SEC), BS3-crosslinked
T2 sequence: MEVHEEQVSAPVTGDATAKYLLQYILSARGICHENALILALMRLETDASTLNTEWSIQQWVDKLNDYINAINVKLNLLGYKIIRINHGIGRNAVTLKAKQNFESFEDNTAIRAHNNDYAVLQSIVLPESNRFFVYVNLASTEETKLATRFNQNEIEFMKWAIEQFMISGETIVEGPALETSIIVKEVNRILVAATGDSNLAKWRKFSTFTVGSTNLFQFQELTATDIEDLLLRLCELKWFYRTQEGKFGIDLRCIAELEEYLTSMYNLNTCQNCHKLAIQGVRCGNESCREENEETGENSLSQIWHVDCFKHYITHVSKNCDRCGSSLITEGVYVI

[3] = target: T3, Nse4 with HaloTag, kleisin subunit of the S. cerevisiae Smc5/6 holo-complex (S. cerevisiae, UniProt P43124 1-402)
T3 construct: Nse4, Saccharomyces cerevisiae; the model holds amino acids 40-124, 184-202, 213-245, 283-402; Density of the HaloTag attached to Nse4 was removed by particle subtraction, so the tag was on the protein on the grid; its end is told only for the yeast strain (C-terminal), not for the recombinant protein; source: recombinant, expressed in insect cells, purified as holo-complex (Superose 6 SEC), …
T3 sequence: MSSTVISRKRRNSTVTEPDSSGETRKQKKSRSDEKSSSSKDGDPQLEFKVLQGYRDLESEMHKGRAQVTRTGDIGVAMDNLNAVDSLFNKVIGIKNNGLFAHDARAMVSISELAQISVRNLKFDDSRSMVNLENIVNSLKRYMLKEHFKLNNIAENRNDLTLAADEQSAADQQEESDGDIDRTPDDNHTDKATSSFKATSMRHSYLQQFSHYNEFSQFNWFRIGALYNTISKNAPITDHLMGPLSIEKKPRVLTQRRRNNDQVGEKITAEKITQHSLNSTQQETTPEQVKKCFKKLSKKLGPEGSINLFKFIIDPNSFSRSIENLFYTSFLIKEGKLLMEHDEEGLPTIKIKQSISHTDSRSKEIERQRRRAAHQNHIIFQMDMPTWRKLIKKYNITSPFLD

binding result [1]: binds
binding result [2]: binds
binding result [3]: binds
B1: Nse3, subunit of the S. cerevisiae Smc5/6 holo-complex (natural protein)
chain: MSSIDNDSDVDLTEDLAVAKIVKENPVARKMVRYILSRGESQNSIITRNKLQSVIHEAAREENIAKPSFSKMFMDINAILYNVYGFELQGLPSKNNMNAGGNGSNSNTNKSMPEPLGHRAQKFILLNNVPHSKNFDDFKILQSAHTYEELIVTGEYIGDDIASGTSNTLESKLSTDRDLVYKGVLSVILCIVFFSKNNILHQELIKFLETFGIPSDGSKIAILNITIEDLIKSLEKREYIVRLEEKSDTDGEVISYRIGRRTQAELGLESLEKLVQEIMGLEKEQTKSLHDDIIKSIGDSYSI
notes: Nse3, Saccharomyces cerevisiae; the model holds amino acids 9-99, 114-152, 173-303; also called KITE subunit; source: recombinant, expressed in insect cells, purified as holo-complex (Superose 6 SEC), BS3-crosslinked
